Test results taken from publication PMC11531568, “Single-molecule imaging and molecular dynamics simulations reveal early activation of the MET receptor in cells” (Nature Communications, 2024).
Residue numbers refer to the chain shown, from its start. Names and notes keep the numbering of the source.

B1: InlB321 K280C variant (with C242A), fluorophore-labeled (domain or fragment)
chain: ETITVPTPIKQIFSDDAFAETIKDNLKKKSVTDAVTQNELNSIDQIIANNSDIKSVQGIQYLPNVTKLFLNGNKLTDIKPLANLKNLGWLFLDENKVKDLSSLKDLKKLKSLSLEHNGISDINGLVHLPQLESLYLGNNKITDITVLSRLTKLDTLSLEDNQISDIVPLAGLTKLQNLYLSKNHISDLRALAGLKNLDVLELFSQEALNKPINHQSNLVVPNTVKNTDGSLVTPEIISDDGDYECPNVKWHLPEFTNEVSFIFYQPVTIGKAKARFHGRVTQPLKE
modifications: Cy3B or ATTO 647N attached by maleimide chemistry to the single cysteine at position 280
notes: Internalin B (InlB), invasion protein of Listeria monocytogenes, amino acids 36-321 of the full-length InlB (cap, leucine-rich repeat and inter-repeat region); The donor-labeled (Cy3B) and acceptor-labeled (ATTO 647N) batches of this variant are written as one molecule; Vector pETM30; also called T variant; tail
B2: InlB321 K64C variant (with C242A), fluorophore-labeled (domain or fragment)
chain: B1 chain with K29C, C245K
modifications: Cy3B or ATTO 647N attached by maleimide chemistry to the single cysteine at position 64
notes: Internalin B (InlB), invasion protein of Listeria monocytogenes, amino acids 36-321 of the full-length InlB (cap, leucine-rich repeat and inter-repeat region); The donor-labeled (Cy3B) and acceptor-labeled (ATTO 647N) batches of this variant are written as one molecule; Vector pETM30; also called H variant; head

Target: the molecule itself
Test: single-molecule photobleaching step analysis; U-2 OS cells labeled with a single Cy3B-labeled InlB321 variant; number of InlB321 in one spot on the plasma membrane

Row | Protein | stoichiometry N
1 | B1 | 2
2 | B2 | 2
